{
  "source": "paper PMC4722120",
  "about": "“Overexpression of a Stress-Responsive NAC Transcription Factor Gene ONAC022 Improves Drought and Salt Tolerance in Rice”",
  "binders": {"B1": {"name": "wNACRS (dsDNA)", "DNA 1": "ATCGCATGTGGAGCACGGAGCACGTTTT", "DNA 2": "AAAACGTGCTCCGTGCTCCACATGCGAT"}, "B2": {"name": "mNACRS (dsDNA)", "DNA 1": "ATCGAAAAAAGAGAAAAGAGAAAATTTT", "DNA 2": "AAAATTTTCTCTTTTCTCTTTTTTCGAT"}},
  "key": {"GST-ONAC022 [1]": {"molecular_target": "T1, GST-ONAC022 (Oryza sativa (rice), UniProt Q10S65 1-316)", "T1 sequence": "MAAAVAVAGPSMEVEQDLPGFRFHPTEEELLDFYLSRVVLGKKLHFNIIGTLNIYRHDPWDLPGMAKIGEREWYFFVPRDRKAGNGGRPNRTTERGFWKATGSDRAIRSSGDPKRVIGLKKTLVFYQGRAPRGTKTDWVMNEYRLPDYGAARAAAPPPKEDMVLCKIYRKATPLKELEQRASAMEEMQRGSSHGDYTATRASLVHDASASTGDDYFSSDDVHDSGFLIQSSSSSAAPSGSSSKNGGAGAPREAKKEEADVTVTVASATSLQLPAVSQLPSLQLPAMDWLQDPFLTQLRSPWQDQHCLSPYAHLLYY", "assay": "EMSA; self-competition by 200x unlabeled wNACRS attenuates the shift; 10 uL with 5x EMSA buffer (Beyotime chemiluminescent EMSA kit), 2 ug protein, 1 uL biotin probe; competitor preincubated 20 min; 8% native PAGE; salt, pH and temperature not stated", "settings": "protein: recombinant; tags: N-terminal GST (pGEX-6p-1); chain copies: 2; blunt"}, "GST-ONAC022 [2]": {"molecular_target": "T1, GST-ONAC022", "assay": "EMSA; 10 uL with 5x EMSA buffer (Beyotime chemiluminescent EMSA kit), 2 ug protein, 1 uL biotin probe; competitor preincubated 20 min; 8% native PAGE; salt, pH and temperature not stated", "settings": "protein: recombinant; tags: N-terminal GST (pGEX-6p-1); chain copies: 2; blunt"}},
  "data": [
    {"binder": "B1", "values": [
      {"measurement": "binding result", "setting": "GST-ONAC022 [1]", "value": "binds"}
    ]},
    {"binder": "B2", "values": [
      {"measurement": "binding result", "setting": "GST-ONAC022 [2]", "value": "no binding"}
    ]}
  ]
}
